Laboratory results: the supplement of paper PMC12667976

B1: library; numbered along this chain (parent)
chain: MATDAALRRLLRLHRTEIAVAVDSAFPLLHALADHDVVPEDKFQETLHLKEKEGCPQAFHALLSWLLTQDSTAILDFWRVLFKDYNLERYGRLQPILDSFPKDVDLSQPRKGRKPPAVPKALVPPPRLPTKRKASEEARAAAPAALTPRGTASPGSQLKAKPPKKPESSAEQQRLPLGNGIQTMSASVQRAVAMSSGDVPGARGAVEGILIQQVFESGGSKKCIQVGGEFYTPSKFEDSGSGKNKARSSSGPKPLVRAKGAQGAAPGGGEARLGQQGSVPAPLALPSDPQLHQKNEDECAVCRDGGELICCDGCPRAFHLACLSPPLREIPSGTWRCSSCLQATVQEVQPRAEEPRPQEPPVETPLPPGLRSAGEEVRGPPGEPLAGMDTTLVYKHLPAPPSAAPLPGLDSSALHPLLCVGPEGQQNLAPGARCGVCGDGTDVLRCTHCAAAFHWRCHFPAGTSRPGTGLRCRSCSGDVTPAPVEGVLAPSPARLAPGPAKDDTASHEPALHRDDLESLLSEHTFDGILQWAIQSMARPAAPFPS

Variants of: B1
Assay: AIRE transcriptional activation functional score (insulin promoter-GFP; nonsense median 0, synonymous median 1) (normalised score); higher = higher AIRE activity (more reporter activation)
Conditions: with insulin promoter-GFP reporter in HEK293
Procedure: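 Deep mutational scan of full-length human AIRE (codon-optimized cDNA, DT-POPCode NNN libraries over three regions) integrated at a Bxb1 landing pad in HEK293 cells carrying an insulin core promoter-GFP reporter at a Flp-In site. Cells were sorted for the top 10% GFP about 14 days after transfection. Variant frequency log-ratios (select vs non-select, TileSeq) were rescaled so that the nonsense median is 0 and the synonymous median is 1, then averaged over biological replicates.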

AIRE transcriptional activation functional score, by site and new letter:
I96: N 0.24; H 1.08; K 0.201; C -0.194; S -0.438; R 0.0358; F 0.253; Q -1.73; M -0.371; A -0.165; D -0.0149; G -0.689; L 0.547; E 0.112; P -0.0986; T -1.01
R92: S 0.275; Y -0.675; I -0.385; V -0.0193; C 0.489; Q 0.461; T -0.129; W 0.13; F 0.28; A -0.0922; E -0.432; D 0.169; G 0.724; H 0.298; L -0.166; P -0.2
Y90: T 0.376; V 0.153; E -0.843; L 0.0613; D 0.18; W -0.215; C 0.198; R 0.13; N 0.194; F 0.00136; P 0.0423; A 0.366; M 0.613; H 0.364; S -0.169; G -0.388; K -0.475; I -0.0337; Q -0.537
V80: E -0.149; C -0.468; Y 0.606; H -0.971; S -0.226; I 1.57; N -6.41; G 0.653; A -0.0867; F 0.527; M 0.629; R -0.324; L 0.613
R79: P -0.266; Q 0.112; A 0.0777; D 0.209; V 0.88; F 0.705; C 0.278; L 0.11; W 0.0958; M -0.695; H 1.25; T -2.81; I 0.217; S 0.372; G 0.275
F77: R -0.0859; W -0.255; Y 0.195; Q -0.44; P -0.416; S -0.182; V 0.192; T 0.0954
D84: I -0.4; F -0.14; V -0.00793; P 0.652; N 0.535; A 0.125; T 0.74; Q 0.343; R 0.794; K -0.063; Y 0.473; W 1.68; G 0.841; E 0.774; L -0.0937; H 0.341; M -0.309; S 1.11; C -0.0537
R89: F 1.93; V -3.54; G 0.255; P -1.08; W 0.927; L -0.165; A 0.812; C 0.253; M -2.04; H 0.994; Q 0.475; S 1.8
L81: N 1.87; W 0.0861; E 0.209; K -1.81; G -0.169; I 0.143; F 0.331; V -0.437; H -1.4; R -0.201; A -0.165; M -0.00473; Y 0.0857; T 0.331; S 0.123; C 0.822; P 0.303; D 0.439
N86: H -0.275; E -0.323; S 0.134; Y 0.0334; W -0.448; A -0.248; I 0.0139; D -1.05; G -0.0879; V 1.33; F -0.398; R -0.161; Q -0.241; C 0.345; K -0.0593; P 0.153; M 1.34; T -0.124; L 0.306
P95: V 1.12; T 1.34; M 1.41; A 1.12; I 0.95; E 0.792; S 0.715; R 0.995; D 0.444; F 1.19; H 0.425; L 1.38; N 1.56; Q 1.61; Y 1.97; W 0.55; C 0.979; G 1.01; K 0.336
Q94: S 0.266; M 1.89; A 1.44; T 0.511; H 0.885; K 1.21; E 0.0511; W 1.53; G 0.865; L 0.662; N -0.193; P 0.0425; I 1.17; C -0.262; Y 0.209; F 0.133; D 0.228; R 1.65; V 1.42
G91: A 0.266; E 1.71; T 0.431; F 0.132; W 1.54; H -0.774; C -0.103; V 0.766; Y 2.5; M 1.02; R 1.22; K -0.415; S 1.19; I -0.00302; P 0.488; D -0.369; L 0.236
K83: A 0.537; W 0.152; I 0.0909; D -0.0712; Q 0.546; G -0.0227; C 0.194; E -0.351; M -0.821; R 0.00955; S 0.122; H 0.338; T 0.432; L 0.753; N 0.0819; P -0.158; V -0.175; Y -0.194; F 0.177
F82: S 0.375; W -0.557; R 0.341; G 0.401; D 0.364; C -0.279; Y 0.443; Q 0.378; P -0.365; T -0.086; L 0.0208; M -1.23; N -4.23; I 0.234; V 0.0231; H 0.0485; K -0.492; A -0.904
E88: F 0.0961; T 1.95; D 0.357; I 0.434; R 2.71; A 1.18; K 0.437; L 0.861; M 0.132; G -0.0199; C 0.444; S 0.402; V 0.181; W 0.779; Q 1.91
Y85: S 0.113; V 0.302; E -2.83; F 0.722; K -1.13; Q -2.11; G -1.95; C 0.367; L 0.211; W -1.85; D 0.0634; N -0.66; I 0.794; T 0.418; P -0.276; R -0.639; H -0.286
W78: G 0.214; Y 0.346; Q -2.24; K 0.0822; E 0.582; R -0.0677; H 0.363; T 0.642; L 0.134; V -0.0156; N -0.791; C 0.126; F 0.409; M 0.308; D 0.137; S 0.301; P 0.554; I 0.15; A 0.0338
L93: H -0.023; G -0.0131; N 0.43; A 0.124; D -0.0637; V 0.0157; K -0.329; T -0.0548; P 0.0133; W 0.0522; Y -0.417; M -0.0479; I 0.258; S -0.0816; R 0.0258; F 0.229; C -0.0574; Q -0.189; E 0.401
L87: D 0.374; C 0.115; N 0.531; W -0.816; S 0.0056; E 1.49; V 0.869; Y -0.162; H -0.266; F -0.159; T 0.00113; A 0.0518; Q 0.462; G 0.476; R 1.14; P 0.0832; I 1.66
